Assay results as given in the supplement of paper PMC9112550, “Optimization of the antimicrobial peptide Bac7 by deep mutational scanning” (BMC Biology, 2022).

These sequences were tested on Escherichia coli TOP10 (assay: shrunken log2 fold change of peptide-encoding DNA abundance (4.5 h post-induction vs induction); higher = less antimicrobial activity (less host growth inhibition)). Settings: time post-induction: 4.5 h; library: site-saturation at positions 5, 18, 19, 20.
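Also: peptides expressed intracellularly from a pBAD plasmid library in pooled LB shake-flask culture, induced with 0.3% L-arabinose, DNA abundance read by NGS, three biological replicates, DESeq2 with apeglm shrinkage.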

Sequence | shrunken log2 fold change
RRIRARPPRLPRPRPRPHNEPRP | -0.258
RRIRGRPPRLPRPRPRPNHWPRP | 0.309
RRIRDRPPRLPRPRPRPQPWPRP | 0.11
RRIRTRPPRLPRPRPRPGAWPRP | 0.12
RRIRWRPPRLPRPRPRPTHKPRP | 0.396
RRIRKRPPRLPRPRPRPSLQPRP | 0.447
RRIRTRPPRLPRPRPRPGPPPRP | 0.404
RRIRPRPPRLPRPRPRPFCLPRP | -0.0969
RRIRLRPPRLPRPRPRPWETPRP | 0.0162
RRIRSRPPRLPRPRPRPHGRPRP | -0.0222
RRIRTRPPRLPRPRPRPREGPRP | 0.41
RRIRHRPPRLPRPRPRPRLVPRP | -0.113
RRIRHRPPRLPRPRPRPIAAPRP | -0.0333
RRIRCRPPRLPRPRPRPQFLPRP | -0.79
RRIRTRPPRLPRPRPRPSSKPRP | -0.201
RRIRWRPPRLPRPRPRPELPPRP | 0.243
RRIRPRPPRLPRPRPRPFKQPRP | -0.258
RRIRSRPPRLPRPRPRPLLHPRP | -0.0854
RRIRNRPPRLPRPRPRPMFDPRP | -0.253
RRIRIRPPRLPRPRPRPFCGPRP | -0.228
RRIRSRPPRLPRPRPRPETSPRP | 0.358
RRIRCRPPRLPRPRPRPGCAPRP | 0.593
RRIRSRPPRLPRPRPRPQALPRP | 0.0266
RRIRQRPPRLPRPRPRPSAMPRP | 0.218
RRIRLRPPRLPRPRPRPQMCPRP | -0.0742

Sequence | shrunken log2 fold change
RRIRWRPPRLPRPRPRPIDLPRP | 0.0151
RRIRWRPPRLPRPRPRPDPAPRP | 0.663
RRIRYRPPRLPRPRPRPDYFPRP | -0.22
RRIRHRPPRLPRPRPRPKCIPRP | -0.021
RRIRFRPPRLPRPRPRPWLCPRP | -0.173
RRIRIRPPRLPRPRPRPSQEPRP | -0.317
RRIRKRPPRLPRPRPRPWWIPRP | -0.0457
RRIRTRPPRLPRPRPRPCYIPRP | -0.226
RRIRDRPPRLPRPRPRPNRIPRP | -0.152
RRIRNRPPRLPRPRPRPLQMPRP | -0.0999
RRIRARPPRLPRPRPRPHCYPRP | 0.101
RRIRFRPPRLPRPRPRPEVKPRP | -0.00444
RRIRYRPPRLPRPRPRPSTEPRP | -0.435
RRIRDRPPRLPRPRPRPHLGPRP | 0.0158
RRIRVRPPRLPRPRPRPGMDPRP | 0.225
RRIRARPPRLPRPRPRPMKNPRP | 0.0488
RRIRPRPPRLPRPRPRPWSTPRP | -0.172
RRIRLRPPRLPRPRPRPKGIPRP | -0.0776
RRIRKRPPRLPRPRPRPNGVPRP | 0.0149
RRIRDRPPRLPRPRPRPFCEPRP | 0.159
RRIRMRPPRLPRPRPRPRHDPRP | 0.659
RRIRPRPPRLPRPRPRPGLNPRP | 0.0174
RRIRHRPPRLPRPRPRPQCMPRP | -0.123
RRIRWRPPRLPRPRPRPRKGPRP | 0.612
RRIRLRPPRLPRPRPRPYKAPRP | -0.112

Sequence | shrunken log2 fold change
RRIRARPPRLPRPRPRPHNQPRP | -0.00392
RRIRGRPPRLPRPRPRPMHCPRP | 0.0139
RRIRDRPPRLPRPRPRPDGGPRP | -0.00182
RRIRGRPPRLPRPRPRPLMTPRP | 2.81
RRIRARPPRLPRPRPRPFKNPRP | -0.193
RRIRMRPPRLPRPRPRPPGIPRP | 1.2
RRIRDRPPRLPRPRPRPKFNPRP | -0.236
RRIRHRPPRLPRPRPRPDGHPRP | -0.0262
RRIRDRPPRLPRPRPRPTYVPRP | -0.0733
RRIRARPPRLPRPRPRPENMPRP | 0.242
RRIRFRPPRLPRPRPRPSCFPRP | -0.0773
RRIRLRPPRLPRPRPRPFHMPRP | -0.16
RRIRERPPRLPRPRPRPRIMPRP | -0.712
RRIRSRPPRLPRPRPRPCYIPRP | -0.582
RRIRHRPPRLPRPRPRPPQDPRP | 0.0355
RRIRGRPPRLPRPRPRPHIKPRP | -0.0279
RRIRMRPPRLPRPRPRPNANPRP | 0.777
RRIRFRPPRLPRPRPRPKPIPRP | 0.0634
RRIRQRPPRLPRPRPRPHNHPRP | -0.811
RRIRRRPPRLPRPRPRPCPRPRP | 0.0796
RRIRHRPPRLPRPRPRPYMPPRP | -0.402
RRIRRRPPRLPRPRPRPMIWPRP | 0.0834
RRIRHRPPRLPRPRPRPCTGPRP | 0.00233
RRIRLRPPRLPRPRPRPTQHPRP | 0.218
RRIRFRPPRLPRPRPRPIRNPRP | -0.0537
